Data from publication PMC9191634 (Proceedings of the National Academy of Sciences of the …, 2022).

Assay type: physicochemical
Settings: n = 3

AgTx2: scorpion toxin that binds in the external pore region of K+ channels
partitioning into LUVs: did not partition
